In PMC2743173 (Neuron, 2008):

B1: MuSK-AP (domain or fragment)
chain: EKLPKAPVITTPLETVDALVEEVATFMCAVESYPQPEISWTRNKILIKLFDTRYSIRENGQLLTILSVEDSDDGIYCCIANNGVGGAVESCGALQVKMKPKITRPPINVKIIEGLKAVLPCTTMGNPKPSVSWIKGDNALRENSRIAVLESGSLRIHNVQKEDAGQYRCVAKNSLGTAYSKLVKLEVEVFARILRAPESHNVTFGSFVTLRCTAIGIPVPTISWIENGNAVSSGSIQESVKDRVIDSRLQLFITKPGLYTCIATNKHGEKFSTAKAAATVSIAEWSKSQKDSQGYCAQYRGEVCDAVLAKDALVFFNTSYRDPEDAQELLIHTAWNELKAVSPLCRPAAEALLCNHLFQECSPGVVPTPMPICREYCLAVKELFCAKEWQAMEGKAHRGLYRSGMHLLPVPECSKLPSMHRDPTACTRLPYLDYKKENITTFPSITSSRPSADIPNLPASTSSFAVSPAYSMT

Legend:
LRP4N-Myc [1] = biological target: LRP4N-Myc (UniProt Q9QYP1); assay: ELISA
Chain of LRP4N-Myc (UniProt Q9QYP1) (Q9QYP1 21-1723): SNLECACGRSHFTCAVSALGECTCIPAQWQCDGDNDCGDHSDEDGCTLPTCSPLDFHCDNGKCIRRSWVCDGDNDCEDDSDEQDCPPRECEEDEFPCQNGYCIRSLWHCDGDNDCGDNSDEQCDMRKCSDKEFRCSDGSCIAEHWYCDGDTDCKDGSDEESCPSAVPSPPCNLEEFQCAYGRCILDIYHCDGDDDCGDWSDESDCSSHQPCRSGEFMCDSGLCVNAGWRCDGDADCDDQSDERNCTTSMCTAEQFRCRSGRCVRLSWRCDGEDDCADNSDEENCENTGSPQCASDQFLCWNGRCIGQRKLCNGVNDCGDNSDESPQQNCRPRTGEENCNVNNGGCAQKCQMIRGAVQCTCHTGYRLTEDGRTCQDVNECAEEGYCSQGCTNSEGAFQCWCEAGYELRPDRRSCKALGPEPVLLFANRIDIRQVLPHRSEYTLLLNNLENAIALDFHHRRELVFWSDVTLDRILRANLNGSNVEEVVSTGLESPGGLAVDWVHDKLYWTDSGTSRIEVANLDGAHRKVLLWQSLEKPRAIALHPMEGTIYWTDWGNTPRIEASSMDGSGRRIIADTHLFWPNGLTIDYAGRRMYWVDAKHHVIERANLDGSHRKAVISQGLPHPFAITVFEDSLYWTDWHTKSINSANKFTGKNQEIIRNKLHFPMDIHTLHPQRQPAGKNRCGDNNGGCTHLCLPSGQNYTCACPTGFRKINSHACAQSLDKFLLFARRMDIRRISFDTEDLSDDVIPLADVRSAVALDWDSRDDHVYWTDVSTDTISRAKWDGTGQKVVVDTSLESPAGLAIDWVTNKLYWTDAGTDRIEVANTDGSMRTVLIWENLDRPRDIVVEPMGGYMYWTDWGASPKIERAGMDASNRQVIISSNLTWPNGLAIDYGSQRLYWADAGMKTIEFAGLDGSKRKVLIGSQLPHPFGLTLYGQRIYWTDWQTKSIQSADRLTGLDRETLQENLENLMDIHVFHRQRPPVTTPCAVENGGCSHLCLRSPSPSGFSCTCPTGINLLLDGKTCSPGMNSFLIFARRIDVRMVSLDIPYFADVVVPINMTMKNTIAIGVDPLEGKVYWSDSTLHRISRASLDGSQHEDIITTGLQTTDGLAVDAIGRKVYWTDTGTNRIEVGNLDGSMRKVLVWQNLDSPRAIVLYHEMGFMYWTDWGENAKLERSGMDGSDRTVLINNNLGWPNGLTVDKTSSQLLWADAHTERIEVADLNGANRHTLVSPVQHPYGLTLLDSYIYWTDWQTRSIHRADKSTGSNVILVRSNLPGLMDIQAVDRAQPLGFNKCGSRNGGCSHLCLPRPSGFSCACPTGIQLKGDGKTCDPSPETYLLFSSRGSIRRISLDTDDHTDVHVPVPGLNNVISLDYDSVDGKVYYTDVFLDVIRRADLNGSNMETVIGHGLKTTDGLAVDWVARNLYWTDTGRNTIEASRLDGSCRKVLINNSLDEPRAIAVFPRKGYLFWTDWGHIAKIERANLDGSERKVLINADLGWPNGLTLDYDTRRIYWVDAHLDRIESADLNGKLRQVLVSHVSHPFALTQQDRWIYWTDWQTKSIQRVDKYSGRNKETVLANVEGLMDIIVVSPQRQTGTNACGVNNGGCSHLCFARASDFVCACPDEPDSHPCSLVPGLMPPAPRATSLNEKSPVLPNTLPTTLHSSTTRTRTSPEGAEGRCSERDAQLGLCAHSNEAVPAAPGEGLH

LRP4N-Myc [2] = biological target: LRP4N-Myc (UniProt Q9QYP1 21-1723); assay: ELISA
Chain of LRP4N-Myc (UniProt Q9QYP1 21-1723) (Q9QYP1 21-1723): as above

Molecule	Kd (LRP4N-Myc [1]) [nM]	Kd (LRP4N-Myc [2]) [nM]
nAgrin-AP (domain or fragment)	0.5	
B1		0.45 ± 0.041
